From article PMC3539207
Like-named read-outs stand apart in the source and are kept apart here.

Key:
Test in all cases: fluorescence polarization
GR DBD WT [1] = target: T1, GR DBD WT (Homo sapiens, UniProt P04150 417-506)
GR DBD WT [2] = target: T1, GR DBD WT; remark: listed apart in the source
GR DBD R460D/D462R = GR DBD R460D/D462R (Homo sapiens, UniProt P04150 417-506, R460D;D462R)
GR DBD WT [3] = target: T1, GR DBD WT; remark: listed apart in the source

T1 sequence (P04150 417-506): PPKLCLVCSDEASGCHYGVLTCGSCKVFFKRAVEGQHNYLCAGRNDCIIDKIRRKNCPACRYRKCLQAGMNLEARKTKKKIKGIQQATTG
GR DBD R460D/D462R, sequence (P04150 417-506 R460D/D462R): as the sequence (P04150 417-506) above, with R44D, D46R counted along it

B1: INS nGRE (dsDNA)
DNA 1: TGCTCTCCTGGAGACATT
DNA 2: AATGTCTCCAGGAGAGCA
Work on B1 yielded a Kd (GR DBD WT [1]) of 500 ± 70 nM.

B2: TSLP, low site only (dsDNA)
DNA 1: CCGCCTCCGG
DNA 2: CCGGAGGCGG
B2 was tested, and the Kd (GR DBD WT [2]) was 12.7 ± 0.8 µM.

B3: FGFR3 nGRE (dsDNA)
DNA 1: CTGCCTCCCCGGAGATGG
DNA 2: CCATCTCCGGGGAGGCAG
In the case of B3, the Kd (GR DBD WT [1]) is reported as 280 ± 80 nM.

B4: (+)GRE (dsDNA)
DNA 1: CCAGAACAGAGTGTTCTGA
DNA 2: TCAGAACACTCTGTTCTGG
Binder B4 has a Kd (GR DBD R460D/D462R) of 80 ± 7 nM and a Kd (GR DBD WT [3]) of 70 ± 7 nM.
